Measured values reported in patent publication US20090264354A1 (UNIVERSITY OF UTAH RESEARCH FOUNDATION, published 2009).

Biological target: the molecule itself
Assay: anti-Myc immunoprecipitation from co-transfected NIH3T3 lysates, non-reducing Western blot; 58-kD disulfide-bonded homodimer
Source text: This example describes the analysis of the protein structure of Penumbra protein. NIH3T3 fibroblasts were co-transfected with pcDNA3.1/Pen-Myc and pEGFP NI/Pen. The latter expressed murine Penumbra (SEQ ID NO:3) as a fusion protein with enhanced green fluorescent protein (EGFP) in its C-terminus. The Pen-Myc fusion protein was first immunoprecipitated from cell lysates using the anti-Myc MAb, Western blotted and sequentially probed with anti-Myc and anti-EGFP antibodies. It appeared that both Pen-Myc/Pen-Myc and Pen-Myc/Pen-EGFP dimers were apparent in the immunoprecipitates under non-reducing conditions and they appeared to dissociate into monomers after reduction indicating they appear to form disulfide-bonded homodimers. It appeared that under reducing conditions, all Pen-Myc fusion proteins existed as 29-kD monomers. In contrast, under non-reducing conditions, it appeared that about half of Pen-Myc protein existed as 58-kD homodimers, while the remaining Pen-Myc protein appeared to exist either as 29-kDa monomers or 89-kDa dimers with Pen-EGFP. […] The same blot was then stripped and reprobed with anti-EGFP antibodies to reveal an apparent ˜60-kD Pen-EGFP monomer and the 89-kD Pen-Myc/Pen-EGFP dimer.

B1: Penumbra-Myc fusion protein (murine Penumbra with C-terminal 11-aa Myc and 6-aa His tags, expressed from pcDNA3.1/Pen-Myc) (other)
chain: MARRPGVPAAYGDEFSFVSPLVKYLLFFFNMLFWVISMVMVAVGVYARLMKHAEAALACLAVDPAILLIVVGVLMFLLTFCGCIGSLRENICLLQTFSLCLTIVFLLQLAAGILGFVFSDKARGKVSEIINNAIVHYRDDLDLQNLIDFGQKKFSCCGGISYRDWSQNMYFNCSEDNPSRERCSVPYSCCLPTPRQAVINTMCGQGMQANDYLEASKVIYTNGCIDKLVNWIHSNLFLLGGVALGLAIPQLVGILLSQVLVNQIKDQIKLQLYNQQHRADPWY
notes: Seen as a 29-kD monomer on reducing gels; also called Pen-Myc fusion protein; Pen-Myc protein; not shown: 11-aa Myc tag from the pcDNA3.1 vector; 6-aa His tag from the pcDNA3.1 vector
binding result: binds
